Laboratory results from PMC10299496, “Effect of Chemical Chaperones on the Stability of Proteins during Heat– or Freeze–Thaw Stress” (International Journal of Molecular Sciences, 2023).
Where “and” joins values, the source holds several entries; their conditions need not be identical. Identical values can stand only once.

How the values were obtained:
[1] = molecular target: the molecule itself; assay: AUC; sedimentation velocity, c(M) distributions; GDH 0.2 mg/mL pre-heated 10 min at 50 °C with or without HPCD, Sorb, Tre or Bet, then cooled; run at 25 °C, 48,000 rpm, 0.1 M Na-phosphate pH 7.6, 0.01 M NaCl
[2] = molecular target: the molecule itself; assay: AUC; sedimentation velocity, c(M) distributions; Phb 0.35 mg/mL pre-heated 40 min at 48 °C with or without HPCD, Tre or Bet, cooled 2 min in ice water; run at 25 °C, 48,000 rpm, 0.03 M HEPES pH 6.8, 0.15 M NaCl

Protein | stoichiometry N [1] | stoichiometry N [2]
Glutamate dehydrogenase from bovine liver (enzyme, glutamate dehydrogenase, bovine liver; homohexamer of six identical subunits of 56-57 kDa; also called GDH; GDHfr (frozen-thawed GDH)) not shown | 6 and 2 | 
Glycogen phosphorylase b from rabbit skeletal muscle (enzyme, UniProt P00489 1-843, looked up, glycogen phosphorylase b (muscle form), rabbit skeletal muscle; dimer of two identical subunits of 97.4 kDa; also called Phb; Phbfr (frozen-thawed Phb)) MSRPLSDQEKRKQISVRGLAGVENVTELKKNFNRHLHFTLVKDRNVATPRDYYFALAHTVRDHLVGRWIRTQQHYYEKDPKRIYYLSLEFYMGRTLQNTMVNLALENACDEATYQLGLDMEELEEIEEDAGLGNGGLGRLAACFLDSMATLGLAAYGYGIRYEFGIFNQKICGGWQMEEADDWLRYGNPWEKARPEFTLPVHFYGRVEHTSQGAKWVDTQVVLAMPYDTPVPGYRNNVVNTMRLWSAKAPNDFNLKDFNVGGYIQAVLDRNLAENISRVLYPNDNFFEGKELRLKQEYFVVAATLQDIIRRFKSSKFGCRDPVRTNFDAFPDKVAIQLNDTHPSLAIPELMRVLVDLERLDWDKAWEVTVKTCAYTNHTVLPEALERWPVHLLETLLPRHLQIIYEINQRFLNRVAAAFPGDVDRLRRMSLVEEGAVKRINMAHLCIAGSHAVNGVARIHSEILKKTIFKDFYELEPHKFQNKTNGITPRRWLVLCNPGLAEIIAERIGEEYISDLDQLRKLLSYVDDEAFIRDVAKVKQENKLKFAAYLEREYKVHINPNSLFDVQVKRIHEYKRQLLNCLHVITLYNRIKKEPNKFVVPRTVMIGGKAAPGYHMAKMIIKLITAIGDVVNHDPVVGDRLRVIFLENYRVSLAEKVIPAADLSEQISTAGTEASGTGNMKFMLNGALTIGTMDGANVEMAEEAGEENFFIFGMRVEDVDRLDQRGYNAQEYYDRIPELRQIIEQLSSGFFSPKQPDLFKDIVNMLMHHDRFKVFADYEEYVKCQERVSALYKNPREWTRMVIRNIATSGKFSSDRTIAQYAREIWGVEPSRQRLPAPDEKIP |  | 2 and 4
